One may read the Kd as the concentration at which binding is half-saturated.

For three molecules, binding result and Kd results are on record in PMC6131548, “Molecular basis for disassembly of an importin:ribosomal protein complex by the escortin Tsr2” (Nature Communications, 2018).

Holding throughout (conditions): both partners purified
Test [1] addresses T1, Tsr2 of the recombinant Tsr2:eS26 complex (XL-MS) (S. cerevisiae (yeast), UniProt Q06672 1-205).
T1 construct: Tsr2, S. cerevisiae; source: recombinant Tsr2:eS26 complex, 1 mg/ml in 50 mM HEPES
T1 sequence (looked up): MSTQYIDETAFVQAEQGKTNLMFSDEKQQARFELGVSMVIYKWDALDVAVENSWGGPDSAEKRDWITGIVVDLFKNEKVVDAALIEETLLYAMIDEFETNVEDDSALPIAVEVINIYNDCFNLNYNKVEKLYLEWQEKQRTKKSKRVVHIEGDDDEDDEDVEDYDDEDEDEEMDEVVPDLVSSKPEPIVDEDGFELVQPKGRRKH
As to the kind of experiment: cross-linking; recombinant Tsr2:eS26 complex, 1 mg/ml in 50 mM HEPES; DSS, PDH/DMTMM or ADH/DMTMM, 37 °C; digestion, SEC, LC-MS/MS (XL-MS).

For a further test, the target named is T2, hTsr2 (ITC) (human, UniProt Q969E8 1-191).
T2 construct: human Tsr2; probably made like the NMR constructs; also called WT hTsr2; human Tsr2; source: E. coli BL21
T2 sequence (looked up): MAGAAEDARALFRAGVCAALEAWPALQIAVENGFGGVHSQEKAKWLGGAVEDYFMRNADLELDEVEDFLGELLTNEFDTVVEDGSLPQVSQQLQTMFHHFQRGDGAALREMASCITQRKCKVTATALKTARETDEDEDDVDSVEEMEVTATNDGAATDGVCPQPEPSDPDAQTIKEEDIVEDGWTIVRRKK
Briefly: ITC; VP-ITC; 20–40 µM Tsr2 variant in the cell, 400–800 µM ESS2 peptide in the syringe; 25 °C, 20 mM NaPi pH 7.1, 1 mM DTT, 10 µM EDTA. Background: ITC needs no label: the signal is the heat of the interaction.

Another test has as its target T3, hTsr2E64G (ITC) (human, UniProt Q969E8 1-191, E64G).
T3 construct: human Tsr2 with the Diamond-Blackfan anemia-linked mutation E64G; also called E64G-DBA variant; hTsr2E64G mutant; source: E. coli BL21
T3 sequence (looked up): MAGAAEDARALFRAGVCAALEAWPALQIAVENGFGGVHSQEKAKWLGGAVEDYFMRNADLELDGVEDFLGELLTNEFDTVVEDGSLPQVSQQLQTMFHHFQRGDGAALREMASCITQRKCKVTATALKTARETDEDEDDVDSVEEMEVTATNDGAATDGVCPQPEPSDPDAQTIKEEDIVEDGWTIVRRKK
Described as above.

For the next test, the target named is T4, Tsr2-N (NMR) (S. cerevisiae (yeast), UniProt Q06672 1-152).
T4 construct: Used unlabeled or 13C,15N-labeled; also called N-terminal domain of Tsr2; source: E. coli BL21 (DE3) CodonPlus-RIL, purified (HisTrap, TEV, Superdex 75); not shown: (His)6-tagged GB1 domain, N-terminal, cleaved
T4 sequence (looked up): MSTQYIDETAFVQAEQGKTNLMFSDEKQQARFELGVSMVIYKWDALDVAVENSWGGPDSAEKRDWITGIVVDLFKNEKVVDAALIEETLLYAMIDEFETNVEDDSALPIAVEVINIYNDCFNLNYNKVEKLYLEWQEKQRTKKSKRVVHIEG
As to the kind of experiment: NMR titration; stepwise titration of the unlabeled component to the labeled one (Tsr2-N, ESS2 peptide), followed by 2D 15N,1H-HSQC; 293.15 K, NMR buffer.

B1: eS26 of the recombinant Tsr2:eS26 complex (XL-MS) (natural protein)
chain: not shown
notes: ribosomal protein eS26 (Rps26A), S. cerevisiae; source: recombinant Tsr2:eS26 complex, 1 mg/ml in 50 mM HEPES
As to B1, the binding result in test [1] is “binds”.

B2: human ESS2 peptide (peptide)
chain: RFRPAGAAPRPPPKPM
modifications: Human limits are not printed. They are taken by ungapped alignment to the yeast ESS2 construct in PDB 6G04 (eS26 residues 100-119; the text defines ESS2 as 99-119), running to the human C-terminus. …
In the case of B2, the Kd with hTsr2 (ITC) was 2 µM; in the test with hTsr2E64G (ITC) it was 90 µM.

B3: ESS2 peptide (peptide, UniProt P39938 100-119, looked up)
peptide: RPRFNRENKVSPADAAKKAL
notes: eukaryotic-specific segment 2 of eS26 (Rps26A), S. cerevisiae, residues 100-119 as deposited; ESS2 is defined as 99-119 in the results, the deposited peptide as 100-119; also called eS26-ESS2; S26A(100-119); source: E. coli BL21 (DE3) CodonPlus-RIL, cleaved from (His)6-GB1 by TEV, purified by reverse-phase HPLC (C8); not shown: (His)6-tagged GB1 domain, N-terminal, cleaved
With B3, the binding result with Tsr2-N (NMR) is recorded as “binds”.
